{
  "source": "the DeepSol protein solubility set",
  "data": [
    {"test": "soluble on expression in E. coli; label from the status in PepcDB or PDB records", "values": [
      {"sequence": "MGSDKIHHHHHHMMKRFWFFLESYVFVWTNHEAVLLYDSLSGKGVTWKLTDPVRTIVMELMKKENLYCMELTEDDLNVPEVTEFVSEIRRNFIGDLYSQEEFRQKPLVIVPEVSVNENLENDVETMNNLELFGQKIVNNLRVVTMRLTGECSINCRYCQTVDKQIVWCRKQDNRLSYNEICRLLEQLKHTPVTLINFVGGNVLSYPFLDELLNELKKHSFGKCFYLYYKQSVDYEQIRAKLLNDPSVSIKFLIDYPVNEYAISACVALPNERVEYCFAVTSEEEFQEVSRIIDVYKLKANIYPFYTIDNLDFFEKYVFQTLEDVMALCRTKKDIFAHQLVNTHFFGTLYIDCDGKVYPNFNSKSIGTIDGYVKDWVFQEMKQGKMWHWTRDSLPACKECLYKYLCPSPSNYELVIGKPNLCHVKPWKC", "soluble on expression in E. coli": "not soluble"},
      {"sequence": "MGSDKIHHHHHHMMKSVLADAVFGGALMIEFYASEALICPRRVWFRLKGIPEKWPEVAKPRLEKGMKIHEVLGKVLKDRFDVELEKSVIIRFPKLGMEIHGKIDVYKEFPIEIKGKSYIPSSPIDYHLAQLNLYLRGVNAEYGYLYYVKLTDDPWRAISDIVFDSFPLIKGNGLKIFEVPYDEVLFKETVKYFYEIKLYLENDELPPAWKGPHCKFCPYNYICLSGEEF", "soluble on expression in E. coli": "not soluble"},
      {"sequence": "MGSDKIHHHHHHMMPYITDIAALEHVGVAAAWTEKVPAFRVLREKRMLDFRAPITVITGENGVGKSTLLEAIAINAGFDTAGGEHTGKFKPSDNPLQTVAKAHKGKEPMRGYFLRAETHFNVASGYRDEAPGWVNLHHMSHGESVMHIVQNAFVGKGLYLMDEPEAGLSFIRQMAILAELNFLAESGAQIIIVTHSPVLMAIPGAEIWEFSASGELHRGFDFEVTTAFRALRDFFEDPEEIAEYMMDVMMDNKGES", "soluble on expression in E. coli": "not soluble"},
      {"sequence": "MGSDKIHHHHHHMMSYVRMTLYHGTDRKSAEKIMESKEILPSQGDNHWLGDGIYFYEEEFHAFKWIWYKEKNRNRLLKNFAIIKAEVICEESRIFDLTKIEHKLLFDMMYKLINTTKLRLDKLRGDMCAEGVVINYMFKNKELGYNKRFDIVRALFPIPVKKYQKIENREKNKKYKERTHRLTFMPEIQVCVKNPSVIKKLEWYDLEKTIDKFLIYTEIYKEDLGI", "soluble on expression in E. coli": "not soluble"},
      {"sequence": "MGSDKIHHHHHHMMTSSEIKRIATYVEKGGVGKTTSAAHIAVAAHNRGHEVLLVDLAGTQNDLATHFGLSIVDEEATDDGVSIDAPISAVFGDDWAFLRDNIDDLLDRMTFPTDEGPDLIPADPGLGGADNNLANVPLEERYQKLDGFVEDLVADKYDLVIFDLPGKEDNIALNGLFAARNVVAPLKPGAFERDQLQKLDATLEEISADLDVDLGLALIIPTIISSQETLSESFVEYVTEEYPEIVGEPVTKTADIGNNQNAGRTLFAVPDDELYATGKRAREAYSANTEQLLSRLTDR", "soluble on expression in E. coli": "not soluble"},
      {"sequence": "MGSDKIHHHHHHMMYPMPSWVYDSVVYQIFPDRFFIGKGKTVEDKKDLYLKRGGVIEKWGVPPRKLPGAQHVKIFYGGDLWGIAEKVDYFEELGINVLYLTPIFLSDTNHKYDTIDYFRVDPQFGGKRAFLHLLRVLHERSMKLILDGVFNHVGSQHPWFKKAKKNDPEYVNRFFLYKDRHRSWFDVGSLPELNVEVEEVKEYILKVVEHYLKLGIDGWRLDCGHDLGPTVNLWINMKVKEFSAEKYLVSEIWTYPAGWDMVDGLMNYNFRNLVLSYVNGETDSIGFHLERAYRETKNIFGCWNMLDSHDTPRLATMVPDRDLRKLAVVLQFTYPGVPLVYYGTEIGLTGGEDPECRATMEWNREKWDVDLFEFYKKMIRLRRTDPGLRFGEFVLLNDSPLAFLRKAPHPLQNTIVVVNPGEEKVLVLSIPDGKIMNTTPLVDVFSGERFHVDGGVVKLPLLARSFRILKPEDLRVGKYRLYKRV", "soluble on expression in E. coli": "not soluble"},
      {"sequence": "MGSDKIHHHHHHMNAERQPSCCKVRLLLCDKSYPSHQSPIYTPTPPPWPLLALPGGVIMRTYLSSVAAIMSRSPDPAPRSSAPGRRASSSTRPPLARIGEVAYLKVVAVNTTGAFLDWGQPKDVLLPFAEQRFRPEVGKRVLVMLYEDAQGRPVASMRLDRFLADEATDLKAGDQVALVVAERTDLGFKAVVDHRYWGLLYADDIVHPPRRGQRLTGYIKRVREDGRLDLAMLPPGEAGLDVVGDKVLALLRCHGGFVALGDKTPAAEIKARVGVSKSAFKQAVGRLYKKRLITIEAEGIRLTREAIDDASSD", "soluble on expression in E. coli": "not soluble"},
      {"sequence": "MGSDKIHHHHHHMNAQIQIIKTAQGHMALCQDTPKDIAPAWFAVDFWRAKDAVVGSSKGRYTTWFVAFEHSHWVLRHYWRGGLMEKFSKDAYVYTGLENTRAMAELRLLNILYHEDFAVPKPIAANIVRDGLFYRADIIIERVEGAEDLVAKLSKGLMNTEQWQALGATIAQFHQRGVYHADLNAKNILFQPAQTAPITPERFYLIDFDRGELKTPSPQWQQSNLDRLLRSFNKEQGKLPSLAFTADNWSSLMMGYQAAMQSA", "soluble on expression in E. coli": "not soluble"}
    ]}
  ]
}
